Experimental findings from publication PMC9525694 are described below.

As usually defined, the stoichiometry N is the number of molecules, sites or subunits per partner or assembly.

This test has as its target T1, Bak (human (endogenous in HeLa)), Q16611.
T1 chain: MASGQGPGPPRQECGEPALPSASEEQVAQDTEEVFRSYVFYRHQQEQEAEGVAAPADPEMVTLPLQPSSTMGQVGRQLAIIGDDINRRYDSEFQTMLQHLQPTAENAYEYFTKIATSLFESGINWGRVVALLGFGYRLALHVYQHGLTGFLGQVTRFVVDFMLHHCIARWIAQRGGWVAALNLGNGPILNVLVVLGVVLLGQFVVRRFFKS
Kind of test: native gel or EMSA; BN-PAGE (6-16.5% gradient, 4 °C) of mitochondria from uninfected HeLa cells incubated with recombinant tBid for 30 min, lysed in 1% digitonin; Western blot for Bak. The conditions noted are these: remark: other sources report otherwise. A general note: Mobility shift assays separate free from complexed probe on a gel.

B1: Bak, Q16611 1-211 (natural protein)
chain: MASGQGPGPPRQECGEPALPSASEEQVAQDTEEVFRSYVFYRHQQEQEAEGVAAPADPEMVTLPLQPSSTMGQVGRQLAIIGDDINRRYDSEFQTMLQHLQPTAENAYEYFTKIATSLFESGINWGRVVALLGFGYRLALHVYQHGLTGFLGQVTRFVVDFMLHHCIARWIAQRGGWVAALNLGNGPILNVLVVLGVVLLGQFVVRRFFKS
B1: the stoichiometry N came out at 2.
